# Measurements: patent US7867732B2, “Isolated polypeptide binding to a sugar chain, polynucleotide encoding the polypeptide and use of the polypeptide and polynucleotide” (National University of Corporation Hiroshima University, priority 2005, dated 2011)
# B1: ESA-2: Eucheuma serra-derived lectin (protein)
# chain: GRYTVQNQWGGSSAPWNDAGLWILGSRGNQNVMAVDVNSSDGGANLNGTMTYSGEGPIGFKGARRGESNVYDVENQWGGSSAPWHAGGQFVIGSRSGQGVLAVNITSSDGGKTLTGTMTYEREGPIGFKGTQSGGDTYNVENQWGGSSAPWNKAGIWALGDRSGQAMIAMDVSSSDGGKTLEGTMQYKGEGPIGFRGKLSGANNYSVENQWGGSSAPWNAAGDWLIGDRHNQNITAVKVSSDNDGKNLDGTCTYEREGPIGFKGVATS
# B2: BML-17: polypeptide (lectin) isolated from seaweed Bryopsis maxima; amino acid sequence of SEQ ID NO: 2 (protein, listed as Bryopsis maxima)
# chain: VIYQDPVTSDMFAKIPMPGHRGPWYVCHSSGDWSRNEPVFGRCALDAKGMVEAYFPYGGKDIKWPSRWSAVLTTGVYWGKYNDWKQADCNGGQQVVDGGRGAVTVRMDGLSECKGWTTGKSSHNEVWFGCNGKEVGSWLSDTPASDVFPLCQEYGAAVKLVHMGRAFN
# B3: UEA-I: Ulex europaeus-derived lectin (protein)
# chain: SDDLSFKFKNFSQNGKDLSFQGDASVIETGVLQLNKVGNNLPDETGGIARYIAPIHIWNCNTGEVASFITSFSFFMETSANPKAATDGLTFFLAPPDSPLRRAGGYFGLFEDTKDNDSSYQTVAVEFDTIGSPVNFDDPGFPHIGIDVNRVKSINAERWNKRYGLNNVANVEIIYEASSKTLTASLTYPSDQTSISVTSIVDLKEILPEWVSVGFSGGTYIGRQATHEVLNWYFTSNLINTNS
# What was measured:
# BML-17 [1] = test: Hemagglutination-inhibition test with BML-17 and trypsin-treated rabbit erythrocytes; type: cell-based, Bryopsis maxima
# Protocol: (§1) Hemagglutinating activity was measured using a micro titer method. Twenty-five μl of serially two-fold dilutions of each purified fraction solution adjusted with saline was placed on a micro titer plate. Each diluted solution was supplemented with 25 μl of a 2% suspension of trypsin-treated rabbit erythrocytes and was gently stirred. The mixture was allowed to stand at room temperature for 1.5 hours and agglutination was observed. Agglutination was evaluated with naked eye. Agglutination of 50% or greater percentage of red blood cells was evaluated as positive. Agglutinating activity was given by agglutination titer, i.e., the protein concentration of maximum diluent showing agglutinating activity.
# (§2) In this Example, trypsin-treated rabbit red blood cells (TRBC) were used as red blood cells. TRBC was prepared as follows. First, 2 ml of blood was collected from the ear of a rabbit kept in laboratory. The blood sample was washed 3 times with about 50 ml of saline, and was supplemented with 50 ml of saline to obtain a 2% rabbit blood cell suspension. The solution was supplemented with 1/10 volume of 0.5% trypsin in saline, and was allowed to stand at 37° C. for 1.5 hours. The trypsin-treated red blood cells were then washed 3 times with saline, and were supplemented with 45 ml of saline to obtain a 2% suspension of trypsin-treated rabbit erythrocytes (or blood cells) (TRBC).
# Hemagglutination-inhibition test was performed according to the following procedure. First, each 25 μl of serially two-fold dilutions of sugar solution in saline was placed on a micro titer plate. The concentration of the original solutions of sugars examined was 100 mM for monosaccharides and oligosaccharides, and 2 mg/ml for glycoproteins. Each solution was mixed with 25 μl of BML-17 solution that had been adjusted to an agglutination titer of 4, and allowed to stand for 1.5 hours at room temperature after gentle stirring. Then, 25 μl of TRBC was added, and the mixture was allowed to stand for 2 hours at room temperature to observe hemagglutination inhibitory capability. The presence or absence of hemagglutination inhibitory capability was determined by naked eye. The test was positive when no hemagglutination occurred in about 100% of the red blood cells.
# The hemagglutination inhibition test used D-glucose, D-galactose, D-mannose, N-acetyl-D-glucosamine, N-acetyl-D-galactosamine, D-xylose, L-fucose, fructose, lactose, and raffinose as monosaccharides and oligosaccharides. As glycoproteins, mucin (bovine submaxillary gland) and asialomucin, fetuin (type III, calf serum) and asialofetuin, transferrin (human) and asialotransferrin, α1-acid glycoprotein (human) and alialo-α1-acid glycoprotein, and yeast mannan were used.
# BML-17 [2] = test: as above; type: cell-based, Bryopsis maxima; details: gel filtration active fractions instead of purified BML-17
# [3] = test system: chicken egg yolk antibody (chicken IgY antibody); test: Search for lectins that bind to chicken egg yolk antibody by SPR (Biacore 2000); type: binding; details: chicken IgY immobilized as ligand
# Excerpt: Assessment was made as to affinity of the different types of lectins and chicken egg yolk antibody (chicken IgY antibody). Briefly, using Biacore 2000 (BIACORE) that employs the principle of surface plasmon resonance method (hereinafter, “SPR method”), chicken egg yolk antibodies (chicken IgY antibodies) were immobilized as ligands on a sensor chip, and measurements were made according to manuals using each type of lectin solution as an analyte. The SPR technique allows for measurement of specific interactions between biomolecules both quickly and quantitatively, without labeling the biomolecules. According to this technique, the ligands are immobilized on a surface of the sensor chip, which is then supplemented with a solution of substance (analyte) that acts on the ligand. Slight changes in mass caused by the binding and dissociation of the molecules are then detected as changes in SPR signals. The mass change is represented by resonance unit (RU). One thousand RU is equivalent to a change in reflection angle of 0.1° caused by resonance, and it means that the analyte has bound to the ligand at 1 ng/mm^2. The surface of the sensor chip is coated with dextran, and the ligands are immobilized primarily via carboxyl groups that have been introduced into the dextran.
# Note that, as permitted, the lectins tested as analytes were selected to have different sugar binding specificity. The chicken egg yolk antibody (chicken IgY antibodies) tested as ligands were obtained by purification from egg yolk, using Eggcellent Chicken IgY Purification Kit (Pierce Chem. Co. USA).
# [4] = test system: chicken egg yolk antibody (chicken IgY antibody); test: SPR kinetics analysis of affinity between lectins and immobilized chicken egg yolk antibody; type: binding; details: lectin as analyte; for Kd: read-out: Dissociation Constant KD
# Protocol: (§3) Immobilization was performed according to manuals. Specifically, Taka-amylase A was immobilized using a surface thiol coupling method, and asialofetuin, bovine tyroglobulin, antibody, and BSA were immobilized using an amine coupling method. Each sample was immobilized in an amount within a range of 1000 RU to 1500 RU as adjusted by a manual injection method. Purity of the glycoprotein was confirmed by SDS-PAGE or MALDI-TOF-MS.
# Affinity between each glycoprotein and each lectin was analyzed by SPR technique. Prior to analysis, preliminary analyses were made to assess analysis methods. […] Approximate KD values were calculated from a resulting sensorgram, and five or more steps of two-fold series dilutions of analyte (lectin) were prepared at target concentrations of 0.1 to 10 KD [M]. An analysis program was created using “Customized Application” according to the manual, and a subtraction function was used in which subtraction was made from flow cells that had glycoproteins immobilized thereon, from among four flow cells in the sensor chip. […] Under this analysis program, each analyte (lectin) solution was flown on the sensor chip at a flow rate of 30 μl/min for 3 minutes, and buffer was flown for 3 minutes to measure the amount of lectin that had bonded/dissociated. Note that, an increase in RU during the time period from 10 seconds before addition of the analyte and to 10 seconds before the end of addition of analyte was given as the amount of bonding. A decrease in RU in the time period from 10 seconds after the addition of buffer to 10 seconds before the end of addition of buffer was given as the amount of dissociation.
# Next, the sensor chip was washed with 0.5 M D-mannose, 10 mM glycine-HCl (pH 4.0), 50 mM HCl, and 10 mM NaOH for reproduction. Concerning the resulting sensorgram, the bonding phase and dissociation phase were fitted together with the curve to determine a bonding rate constant Ka, a dissociation rate constant kd, an affinity constant KA, and a dissociation constant KD.
# Table 1 represents affinity constants of chicken egg yolk antibody and the various lectins. Table 1 represents bonding rate constant Ka (M^−1s^−1), dissociation rate constant Kd (s^−1), affinity constant KA (M^−1), and dissociation constant KD (M). The greater the affinity constant, the greater the affinity (stronger binding).
# asialotransferrin = target: T1, asialotransferrin (Homo sapiens, UniProt P02787); test: SPR kinetics analysis of affinity between lectins and immobilized asialotransferrin; type: binding
# T1 construct: purchased SIGMA
# Protocol: as §3
# Affinity between each glycoprotein and each lectin was analyzed by SPR technique. Prior to analysis, preliminary analyses were made to assess analysis methods. […] Approximate KD values were calculated from a resulting sensorgram, and five or more steps of two-fold series dilutions of analyte (lectin) were prepared at target concentrations of 0.1 to 10 KD [M]. An analysis program was created using “Customized Application” according to the manual, and a subtraction function was used in which subtraction was made from flow cells that had glycoproteins immobilized thereon, from among four flow cells in the sensor chip. […] Under this analysis program, each analyte (lectin) solution was flown on the sensor chip at a flow rate of 30 μl/min for 3 minutes, and buffer was flown for 3 minutes to measure the amount of lectin that had bonded/dissociated. […]
# bovine tyroglogulin = target: T2, bovine tyroglogulin (Bos taurus, UniProt P01267); test: Elutability of lectins bound to a bovine tyroglobulin-immobilized chip (SPR); type: binding, cattle; details: 0.5 M D-mannose
# T2 construct: purchased SIGMA
# Excerpt: As in the case of chicken egg yolk antibody, a chip having immobilized thereon bovine tyroglogulin including the high-mannose-type sugar chain and the complex-type sugar chain was used to assess elutability of lectins that had bound to the chip. Note that, tyroglogulin was immobilized in a maximum amount (12,095 RU) on CM5 sensor chip, so as to make it easier to confirm specific binding and elution. Each solution of analyte (lectin) contained in HBS-EP (equilibriated) buffer (BIACORE) at a concentration of 100 μg/ml was flown at a flow rate of 5 μl/min until the amount of bonding reached equilibrium. After washing with HBS-EP buffer and the dissociation has reached equilibrium, 50 μl of 0.5 M D-mannose in the same buffer was injected. Based on the sensorgram, the amount of binding (RU) at the time when 50 μl (5 μg) of analyte (lectin) solution was injected was measured. Then, the amount of residual bonding (RU) of analyte (lectin) after buffer washing and elution with 50 μl of 0.5 M D-mannose was measured. The amount of residual bonding was given by percentage with respect to the maximum amount of bonding.
# FIG. 3 represents the amount of residual bonding (%) of analyte (lectin) after the bonding, washing, and elution with 0.5 M D-mannose. FIG. 3 represents relative amounts of lectin that remain bonded to the chip after the dissociation with HBS-EP buffer, and relative amounts of lectin that remain after the elution with 0.5M D-mannose, when the amount of lectin binding to the bovine tyroglobulin immobilized chip exposed to the respective lectins is taken at 100%.
# [5] = test system: trypsin-treated rabbit red blood cell (TRBC); test: Temperature stability and pH stability of BML-17 by agglutinating activity; type: physicochemical; details: 30-minute heat treatment
# Protocol: as §1
# as §2, with “The trypsin-treated red blood cells were then washed 3 times with saline, and were supplemented with 45 ml of saline to obtain a 2% suspension of trypsin-treated rabbit erythrocytes (or blood cells) (TRBC).” left out
# Temperature stability and pH stability of BML-17 were evaluated, using agglutinating activity for trypsin-treated rabbit red blood cell (TRBC) as a measure.
# T2 sequence (P01267 20-2769): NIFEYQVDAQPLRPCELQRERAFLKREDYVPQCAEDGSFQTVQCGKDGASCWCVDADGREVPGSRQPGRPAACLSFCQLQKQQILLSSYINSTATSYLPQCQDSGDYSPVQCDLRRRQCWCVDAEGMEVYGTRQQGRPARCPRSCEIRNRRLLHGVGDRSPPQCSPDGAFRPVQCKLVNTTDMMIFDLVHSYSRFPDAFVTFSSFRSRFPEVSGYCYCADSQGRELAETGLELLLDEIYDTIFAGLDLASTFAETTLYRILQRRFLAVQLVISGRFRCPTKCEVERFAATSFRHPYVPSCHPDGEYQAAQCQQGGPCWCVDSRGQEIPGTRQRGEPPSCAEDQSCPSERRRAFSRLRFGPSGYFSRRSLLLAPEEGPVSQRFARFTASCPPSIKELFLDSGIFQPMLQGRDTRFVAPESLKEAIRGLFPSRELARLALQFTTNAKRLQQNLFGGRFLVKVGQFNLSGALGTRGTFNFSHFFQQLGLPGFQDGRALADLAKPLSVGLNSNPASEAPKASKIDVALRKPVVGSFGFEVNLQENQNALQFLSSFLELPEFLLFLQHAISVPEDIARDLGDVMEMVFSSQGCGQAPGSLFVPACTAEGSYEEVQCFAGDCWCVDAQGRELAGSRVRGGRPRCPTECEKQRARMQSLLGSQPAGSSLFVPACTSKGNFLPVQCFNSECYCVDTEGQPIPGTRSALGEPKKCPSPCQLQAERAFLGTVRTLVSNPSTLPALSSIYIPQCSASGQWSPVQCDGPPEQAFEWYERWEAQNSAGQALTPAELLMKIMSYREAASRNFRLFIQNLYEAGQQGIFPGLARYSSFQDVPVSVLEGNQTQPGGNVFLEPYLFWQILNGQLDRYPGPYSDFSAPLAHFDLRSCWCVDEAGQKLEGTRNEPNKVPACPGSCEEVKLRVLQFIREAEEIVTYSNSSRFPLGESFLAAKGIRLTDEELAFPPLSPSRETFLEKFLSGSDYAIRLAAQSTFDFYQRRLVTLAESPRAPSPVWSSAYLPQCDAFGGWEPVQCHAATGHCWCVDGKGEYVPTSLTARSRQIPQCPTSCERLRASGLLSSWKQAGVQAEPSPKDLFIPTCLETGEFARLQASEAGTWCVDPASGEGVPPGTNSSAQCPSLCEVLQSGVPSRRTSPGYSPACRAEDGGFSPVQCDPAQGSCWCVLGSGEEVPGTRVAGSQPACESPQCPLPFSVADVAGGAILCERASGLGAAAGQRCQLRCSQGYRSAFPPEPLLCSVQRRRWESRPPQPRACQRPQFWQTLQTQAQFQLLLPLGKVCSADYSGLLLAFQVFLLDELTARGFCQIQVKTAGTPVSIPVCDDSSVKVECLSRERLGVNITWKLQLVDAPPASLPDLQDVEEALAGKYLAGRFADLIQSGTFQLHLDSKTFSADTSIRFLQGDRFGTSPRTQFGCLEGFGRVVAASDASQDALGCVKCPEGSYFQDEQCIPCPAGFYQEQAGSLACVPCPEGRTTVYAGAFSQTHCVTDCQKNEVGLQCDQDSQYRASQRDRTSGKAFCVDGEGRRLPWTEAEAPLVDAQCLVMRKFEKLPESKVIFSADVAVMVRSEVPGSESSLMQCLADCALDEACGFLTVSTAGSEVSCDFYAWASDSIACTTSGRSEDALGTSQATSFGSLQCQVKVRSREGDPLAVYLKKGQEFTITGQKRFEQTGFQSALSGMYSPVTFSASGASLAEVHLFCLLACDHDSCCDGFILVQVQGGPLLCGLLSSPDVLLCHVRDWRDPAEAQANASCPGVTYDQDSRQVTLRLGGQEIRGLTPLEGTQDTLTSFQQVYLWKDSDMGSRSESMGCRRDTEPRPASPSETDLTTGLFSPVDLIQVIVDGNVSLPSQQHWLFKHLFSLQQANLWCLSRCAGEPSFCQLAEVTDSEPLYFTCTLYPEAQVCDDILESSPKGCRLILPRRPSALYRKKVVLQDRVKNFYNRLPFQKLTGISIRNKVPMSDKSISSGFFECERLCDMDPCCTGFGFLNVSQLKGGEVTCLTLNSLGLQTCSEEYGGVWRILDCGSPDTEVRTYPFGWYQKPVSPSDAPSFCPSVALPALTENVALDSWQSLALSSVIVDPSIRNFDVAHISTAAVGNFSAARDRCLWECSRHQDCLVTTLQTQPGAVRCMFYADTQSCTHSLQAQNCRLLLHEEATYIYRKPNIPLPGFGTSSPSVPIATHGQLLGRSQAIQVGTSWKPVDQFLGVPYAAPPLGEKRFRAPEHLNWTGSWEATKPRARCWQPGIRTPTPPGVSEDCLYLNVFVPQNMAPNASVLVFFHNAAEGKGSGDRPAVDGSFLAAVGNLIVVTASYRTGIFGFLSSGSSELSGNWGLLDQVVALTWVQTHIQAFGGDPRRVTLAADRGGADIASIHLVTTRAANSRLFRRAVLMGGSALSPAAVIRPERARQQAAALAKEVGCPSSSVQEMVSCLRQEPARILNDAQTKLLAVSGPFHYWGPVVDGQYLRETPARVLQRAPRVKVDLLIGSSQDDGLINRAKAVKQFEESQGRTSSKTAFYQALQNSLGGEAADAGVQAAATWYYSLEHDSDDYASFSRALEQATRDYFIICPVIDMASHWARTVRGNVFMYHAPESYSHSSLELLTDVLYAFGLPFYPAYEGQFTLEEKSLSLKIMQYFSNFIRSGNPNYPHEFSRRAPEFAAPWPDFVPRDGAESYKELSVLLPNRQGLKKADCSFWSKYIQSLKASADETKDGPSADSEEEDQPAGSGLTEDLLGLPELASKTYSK
# T1 sequence (P02787 20-698): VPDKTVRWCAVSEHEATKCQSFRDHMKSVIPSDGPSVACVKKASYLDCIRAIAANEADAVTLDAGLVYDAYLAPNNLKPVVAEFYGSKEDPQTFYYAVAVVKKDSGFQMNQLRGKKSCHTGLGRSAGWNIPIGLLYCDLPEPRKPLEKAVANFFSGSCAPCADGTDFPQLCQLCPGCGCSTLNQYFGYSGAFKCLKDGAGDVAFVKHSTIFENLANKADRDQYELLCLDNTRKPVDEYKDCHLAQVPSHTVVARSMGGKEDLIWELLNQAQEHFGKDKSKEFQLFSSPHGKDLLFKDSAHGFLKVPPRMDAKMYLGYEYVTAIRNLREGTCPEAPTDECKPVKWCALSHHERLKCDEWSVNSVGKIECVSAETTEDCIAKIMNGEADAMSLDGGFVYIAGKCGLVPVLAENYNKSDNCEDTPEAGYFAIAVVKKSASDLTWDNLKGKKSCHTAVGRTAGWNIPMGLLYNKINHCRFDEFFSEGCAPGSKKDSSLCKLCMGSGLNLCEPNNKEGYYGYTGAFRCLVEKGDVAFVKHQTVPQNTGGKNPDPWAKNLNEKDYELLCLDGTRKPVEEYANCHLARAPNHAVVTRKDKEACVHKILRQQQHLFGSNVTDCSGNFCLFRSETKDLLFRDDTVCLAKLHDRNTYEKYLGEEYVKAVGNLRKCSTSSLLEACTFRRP
molecule,measurement,setting,value
O=C[C@@H](O)[C@@H](O)[C@H](O)[C@H](O)CO [D-Mannose],Inhibition of agglutinating activity of BML-17 (in words),BML-17 [1]; TRBC,inhibited
same,Minimum inhibitory concentration,"BML-17 [1]; monosaccharides and oligosaccharides, inhibition of BML-17 (agglutination titer 4) agglutination of TRBC",12.5 mM
same,Inhibition of agglutinating activity of the active fractions obtained by gel filtration,BML-17 [2],not inhibited at all
Con A: Canavallia ensiformis-derived lectin,Binding to chicken egg yolk antibody (in words),[3],binding to chicken egg yolk antibody (chicken IgY antibodies) occurs
same,Affinity Constant KA,[4],1.87e+07 M⁻¹
same,Binding Rate Constant ka,[4],467 M⁻¹ s⁻¹
same,Dissociation Rate Constant kd,[4],2.49e-05 s⁻¹
same,Kd,[4],53.4 nM
same,Affinity Constant KA,asialotransferrin,10^6 M^−1
same,Elution of bound lectin with D-mannose,bovine tyroglogulin,partially eluted with D-mannose
B1,Binding to chicken egg yolk antibody (in words),[3],binding to chicken egg yolk antibody (chicken IgY antibodies) occurs
same,Affinity Constant KA,[4],7.73e+07 M⁻¹
same,Binding Rate Constant ka,[4],352000 M⁻¹ s⁻¹
same,Dissociation Rate Constant kd,[4],0.00455 s⁻¹
same,Elution of bound lectin with D-mannose,bovine tyroglogulin,not eluted with D-mannose or any other eluents
B2,Binding to chicken egg yolk antibody (in words),[3],binding to chicken egg yolk antibody (chicken IgY antibodies) occurs
same,Affinity Constant KA,[4],8.36e+07 M⁻¹
same,Binding Rate Constant ka,[4],490000 M⁻¹ s⁻¹
same,Dissociation Rate Constant kd,[4],0.00586 s⁻¹
same,Kd,[4],12 nM
same,Elution of bound lectin with D-mannose,bovine tyroglogulin,specifically and quantitatively eluted with D-mannose
same,Temperature at which agglutinating activity attenuated,[5],≥ 60 °C
B3,Binding to chicken egg yolk antibody (in words),[3],binding to chicken egg yolk antibody (chicken IgY antibodies) occurs
